Legend:
[1] = target: CapH C-terminal domain (residues 67-107) with Ile99 to Met mutation, crystallised (E. coli MS115-1); assay: crystal structure
[2] = target: CapH C-terminal domain (residues 67-107), crystallised (E. coli MS115-1); assay: crystal structure
[3] = target: MBP-fused CapH (I99M) mutant (E. coli MS115-1); assay: SEC-MALS

With “CapH C-terminal domain (residues 67-107) with Ile99 to Met mutation, crystallised (domain or fragment)” the stoichiometry N [1] was 2.

Work on “CapH C-terminal domain (residues 67-107), crystallised (domain or fragment)” yielded a stoichiometry N [2] of 4.

“MBP-fused CapH (I99M) mutant (natural protein)” was tested, and the stoichiometry N [3] was 2.

— publication doi:10.1101/2022.04.27.489752
